# According to patent publication US20260231954A1, “PESTICIDAL ENZYMES FOR USE ON NEMATODES, INSECTS, AND MOLLUSKS” (priority 2023, published 2026):
# B1: Chitinase (SEQ ID NO: 185): recombinant chitinase from Akanthomyces lecanii; Acidic Chitinase 1 (Chit1) (protein, listed as Akanthomyces lecanii)
# chain: MAKCTSPDRKCPAPLIDAPINSFMTDGWADTDIHWEGDSWNDSGTNIYGCLKQLNILKKHNRNFKVLLSIGGWTYSSNFPAPASTPEGRDTFAKSCVELVKNLGFDGIDIDWEYPKTAEEAGHFVELLAEVRKQLDEYSARAANNYHFELSVACPAGPDNFQKLNISGMDAYLDFWNLMAYDYAGSWDKNSGHQANLYPCKDAPGCTPFSTVAAVDYYTSNGVSPDKLVLGMPLYGRAFENCDGIGQPFQGVGQGTWEQGVYDYKKLPLEGAEEHKDDDSCATYCHNAESRTLVTYDTPELAKTKADFIKERGLGGGMWWESSADKAGDDSLIQVVVSELGGPEALKQQQNCISYPETKYDNLRDGLPDN
# modifications: Acidic Chitinase 1 (Chit1-H195)
# B2: H6-pnbA (SEQ ID NO: 94): recombinant six-histidine tagged esterase pnbA from Bacillus subtilis (protein, listed as Bacillus subtilis)
# chain: MTHQIVTTQYGKVKGTTENGVHKWKGIPYAKPPVGQWRFKAPEPPEVWEDVLDATAYGSICPQPSDLLSLSYTELPRQSEDCLYVNVFAPDTPSKNLPVMVWIHGGAFYLGAGSEPLYDGSKLAAQGEVIVVTLNYRLGPFGFLHLSSFNEAYSDNLGLLDQAAALKWVRENISAFGGDPDNVTVFGESAGGMSIAALLAMPAAKGLFQKAIMESGASRTMTKEQAASTSAAFLQVLGINEGQLDKLHTVSAEDLLKAADQLRIAEKENIFQLFFQPALDPKTLPEEPEKAIAEGAASGIPLLIGTTRDEGYLFFTPDSDVHSQETLDAALEYLLGKPLAEKVADLYPRSLESQIHMMTDLLFWRPAVAYASAQSHYAPVWMYRFDWHPKKPPYNKAFHALELPFVFGNLDGLERMAKAEITDEVKQLSHTIQSAWITFAKTGNPSTEAVNWPAYHEETRETLILDSEITIENDPESEKRQKLFPSKGE
# modifications: Esterase (pnbA)
# B3: H6-pytH (SEQ ID NO: 95): recombinant six-histidine tagged esterase pytH from Sphingobium wenxiniae (protein, listed as Sphingobium wenxiniae)
# chain: MTVTDIILIHGALNRGACYDAVVPLLEARGYRVHAPDLTGHTPGDGGHLSVVDMEHYTRPVADILARAEGQSILLGHSLGGASISWLAQHHPDKVAGLIYLTAVLTAPGITPETFVLPGEPNRGTPHALDLIQPVDEGRGLQADFSRLERLREVFMGDYPGEGMPPAEQFIQTQSTVPFGTPNPMEGRALEIPRLYIEALDDVVIPIAVQRQMQKEFPGPVAVVSLPASHAPYYSMPERLAEAIADFADAPAEYRQTATKAGPDRPAGADGGRADRADLP
# modifications: Esterase (pytH)
# B4: Pseudomonas sp. esterase free enzyme concentrate (SEQ ID NO: 248): free enzyme concentrated in an Amicon Ultra 4K filter unit, 4× volumetric concentration (protein, listed as Pseudomonas sp.)
# chain: MTEPLILQPVKPADACVIWLHGLGADRYDFLPVAEALQEILLSTRFVLPQAPTRPVTINGGYAMPSWYDIKAMSPARAIDRDELEASADRIIELIEEQRSSGIDASRIFLAGFSQGGAVVYHTAFLKWQGPLGGVLALSTYAPTFSDELELSASQQRIPVLSLHGQFDNVVQNSMGRTAYEYLKAHGVTVTWQEYPMEHEVLPEEIRDIGTWLSERLR
# modifications: concentrated
# notes: free enzyme concentrated in an Amicon Ultra 4K filter unit, 4× volumetric concentration
# B5: Chitinase C (SEQ ID NO: 249): Chitinase C (protein, listed as Bacillus thuringiensis)
# chain: DSPKQSQKIVGYFPSWGVYGRNYQVADIDASKLTHLNYAFADICWKGKHGNPSTHPDNPNKQTWNCKESGVPLQNKEVPNGTLVLGEPWADVTKSYPGSGTTWEDCDKYARCGNFGELKRLKAKYPHLKTIISVGGWTWSNRFSDMAADEKTRKVFAESTVAFLRAYGFDGVDLDWEYPGVETIPGGSYRPEDKQNFTLLLQDVRNALNKAGAEDGKQYLLTIASGASQRYADHTELKKISQILDWINIMTYDFHGGWEATSNHNAALYKDPNDPAANTNFYVDGAIDVYTNEGVPVDKLVLGVPFYGRGWKSCGKENNGQYQPCKPGSDGKLASKGTWDDYSTGDTGVYDYGDLTANYVNKNGFVRYWNDTAKVPYLYNATTGTFISYDDNESMKYKTDYIKTKGLSGAMFWELSGDCRTSPKYSCSGPKLLDTLVKELLGGPINQKDTEPPTNVKNIIVTNKTSSSVQLSWTASTDNVGVTEYEITAGEEKWSATTNSITIKNLKPNTEYTFSVIAKDASGNKSHPTALTVKTDEANTTPPDGNGTATFSVTSNWGSGYNFSIIIKNNGTIPIKNWKLEFDYSGNLTQVWDSKISSKTNNHYVITNAGWNGEIPPGGSITIGGAGTGNPAELLNAVISEN
# B6: Bacillus thuringiensis Lipase 1 (SEQ ID NO: 250): Bacillus thuringiensis Lipase 1 (protein, listed as Bacillus thuringiensis)
# chain: YGFVSGVNDVLNPKASNLIKKTDVVAKEKKKTGTLQIVSLGDSLTRGVGDKEGIGYVGRMKEDLQKDYKQKIALTNLAVSGAKMPDLLKQIESNGAQYSIKQADVIVLTIGGNDLFPGWESLGKIDLETYRPDTETFQNEAKKIIEEIRKLNTDSPIFWLGLYNPFEDVEDLKGSSNIVVDWNASLEKLALNDKNVYITPTFDLFQNRGKDLLYSDHFHPNEVGYTYMAERLVQNVVSKLKLEQGGVK
# B7: Trypsin-like protease (SEQ ID NO: 126): Trichoderma lixii trypsin-like protease (protein, listed as Trichoderma lixii)
# chain: AAITPRGSDIVGGTTAALGEFPYIVSLSTGGSHFCGGVLIDSRTVVTAGHCTIDQRASSVKVRAGTLTWASGGTQVGVSSLTLHPSYTVDSQGVPDNDVGVWHLATAIPTSSTIGYATLPASGSDPAAGTTLTVAGWGTTSENSNSLPSTLRKVSVPVVARATCDSDYDGEISNNMFCAAVAAGGKDSCSGDSGGPIIDPSGTLVGVVSWGQGCAERGFPGVYTRLGNYVSFINSNRG
# modifications: H182 trypsin-like protease
# B8: Lipase: lipase of Table 46, not further identified; probably Lipase (SEQ ID NO: 76) (protein, listed as Bacillus thuringiensis)
# chain: MRLMRRCVALLIVFFIMAPMISTNVRAGVVKELKTGFPDQEVFTPGEWFLGQKPANYDENKPPILFVQGRNGNADSWYGKTVYHDINDMYDYALKAGYQTVFIQLYDAAGKGSASQWDNGKLLAQKLEEIYNHFGKKVNIVAHSKGGIDTQAALVGYGANRFVGNVITLATPHHGSNLADLSYSWWAGWLASILGQKDDGTYSLQMGEMAKFRSTIDNNPAAKLNRYYTVTGTSWGPVFSALSMGGLYLSSYGSNDGLVNECSAKLPYGTHLFTDSRFDHDNIRKGSAVFARIEPYLRTANVPVPALVASSTSSNENIEQLNTTSNQSILGGELPQNQWIEQTVAVDKKAEGIVSILTASSDVEVQMISPKGKVYTNKDSVITTGEGESFFGGATIRTFKFDKMDVGEWKVKMMTKQSKDAYLVVSDYKTGAPFVLQMPTKVKANKSEYKLKKSPVAPEMKGDLSITVRVVNKEGKLVSEFNELQNVNNNTFTGALKNIKQPGVYNVTMDIKGMNKEGKSYSRTIVKSVYVEK
# modifications: Lipase (Lip1 H192)
# How the values were obtained:
# [1] = test system: Btk resistant Diamondback moth; assay: Diet-surface overlay (DSO) bioassay on Btk resistant Diamondback moth; format: in vivo, Plutella xylostella; conditions: number of individuals, n = 32, 7 days
# Protocol: (§1) Diet-surface overlay bioassays are conducted with artificial diet mixes without antibiotics in 1.5 cm^2 cell bioassay trays(s). Artificial diets are commercially available from Southland Products Inc. Diets were prepared by dispersing 0.5 mL of molten diet to each 1.5 cm^2 cell. After solidification, 0.1 mL enzyme treatments were dispersed on top of diet in each cell and the tray was gently rocked in an orbital shaker to spread the liquid uniformly over the diet surface. Trays were placed under clean airflow until the surface of each cell was uniformly dried. One or two 16-cell sections were used per treatment (the number in larvae treated was 16 or 32).
# (§2) One healthy first instar larva was placed into each treatment cell, each 16-cell section was covered with a re-sealable lid and incubated at 27° C. and light-dark period of 16:8 hrs. After 7 days, and according to the species, the number of individuals in the following developmental categories was recorded.
# Diamondback moth (Plutella xylostella): Dead Larva (lack of movement), Larva Stage I (≤50% relative size), Larva Stage II (100% relative size, full size), Early Pupa (light green color), Late Pupa (light-dark brown color), and Adult.
# (§3) Negative/untreated controls were treated with filtered water and positive controls were treated with lethal doses of Bacillus thuringiensis subsp. Kurstaki (Btk) spores at 1000 ppm.
# However, both neutral proteases reduced the number of individuals reaching adult stage.
# The effect of lipase (10× enzyme rate) and free lipases were tested on a Diamondback Moth Btk resistant strain. Free Lipases from Burkholderia cepacia (Bc) and Pseudomonas fluorescens (Pf) were tested along with Lipase (SEQ ID NO: 76) and the results are shown below in Table 45.
# [2] = test system: Fall armyworm (Spodoptera frugiperda); assay: Diet-surface overlay (DSO) bioassay on Fall armyworm; format: in vivo
# Protocol: as §1, §2, §3
# [3] = test system: soybean cyst nematode (SCN, Heterodera glycines); assay: Soybean cyst nematode reproduction on soybean after seed treatment, controlled environment (cysts per gram of root tissue or per plant); format: in vivo; conditions: for % Comparison to Control (figure in parentheses): change vs base control
# [4] = Table 48, chitinases, Fall armyworm, number of individuals of n = 32, DSO bioassay
# [5] = Table 50, esterases, Fall armyworm, number of individuals of n = 32
# [6] = Table 50, esterases, Fall armyworm, number of individuals of n = 32, DSO bioassay, dose per treatment in U/mL Diet
# [7] = Table 46, number of individuals, n = 32, 7 days
molecule,measurement,setting,value
B1,Dead Larva,"[1]; Table 47, chitinases, rate in mU/mL diet column",2
same,Adult,[1]; Table 47,1
same,Early Pupa,[1]; Table 47,8
same,Larva Stage I,[1]; Table 47,2
same,Larva Stage II,[1]; Table 47,2
same,Late Pupa,[1]; Table 47,17
same,Larva Stage I,[2]; [4],4
same,Larva Stage II,[2]; [4],5
same,Larva Stage III,[2]; [4],8
same,Larva Stage IV,[2]; [4],8
same,Dead Larva,"[2]; Table 48, chitinases, Fall armyworm, number of individuals of n = 32, DSO bioassay, dose per treatment in mU/mL Diet",7
B2,Larva Stage I,[2]; [5],0
same,Larva Stage II,[2]; [5],0
same,Larva Stage III,[2]; [5],15
same,Larva Stage IV,[2]; [5],17
same,Dead Larva,[2]; [6],0
B3,Larva Stage I,[2]; [5],0
same,Larva Stage II,[2]; [5],0
same,Larva Stage III,[2]; [5],13
same,Larva Stage IV,[2]; [5],19
same,Dead Larva,[2]; [6],0
B4,% Comparison to Control (figure in parentheses),[3]; Table 16,−25%
same,Average cysts per g of root tissue,"[3]; Table 16, free enzyme or 4x concentrate seed treatment, soybean 2830E3",182.1 cysts per g of root tissue
B5,% Comparison to Control (figure in parentheses),[3]; Table 18,−22%
same,Average cysts per g of root tissue,"[3]; Table 18, free enzyme seed treatment",45.7 cysts per g of root tissue
B6,% Comparison to Control (figure in parentheses),[3]; Table 19,−25%
same,Average cysts per g of root tissue,"[3]; Table 19, free enzyme seed treatment, soybean 2830E3",332.0 cysts per g of root tissue
B7,Average cysts per g of root tissue,"[3]; Table 11, free enzyme seed treatment 2 fl. oz. per unit of seed (ILEVO 0.15 mg active ingredient per seed), soybean P18A98X, 3 weeks after inoculation",18.6 cysts per g of root tissue
B8,Dead Larva,"[2]; Table 46, lipases, number of individuals, n = 32, 7 days",5
same,Larva Stage I,[2]; [7],2
same,Larva Stage II,[2]; [7],10
same,Larva Stage III,[2]; [7],15
same,Larva Stage IV,[2]; [7],0
